# Measured values from article doi:10.1101/370387 (bioRxiv, 2018).
# Substitutions are numbered along the chain they refer to. Read-outs that look alike come from different tables or passages of the source. No end group written: not given here.
# B1: phospholamban Asn27-Ala mutant (canine PLN sequence), super-inhibitory pentameric form (natural protein, UniProt P61012 1-52, looked up)
# chain: MDKVQYLTRSAIRRASTIEMPQQARQALQNLFINFCLILICLLLICIIVMLL
# modifications: cysteine pairing not given here; also: pentameric form
# B2: phospholamban Lys27-Ala mutant (human PLN sequence), super-inhibitory pentameric form (natural protein, UniProt P26678 1-52, looked up)
# chain: B1 chain with D2E
# modifications: cysteine pairing not given here; also: pentameric form
# Tests used:
# [1] = molecular target: the molecule itself; test: cryo-EM structure
# [2] = molecular target: the molecule itself; test: cryo-EM structure; remark: listed apart in the source
Protein,stoichiometry N [1],stoichiometry N [2]
B1,4,–
B2,–,5
